The target of test [1] is human nectin-1 ectodomain (amino acids 30-335) (human) (UniProt Q15223). Briefly: SPR; BIAcore 3000, CM5 chip; […]) immobilised; […]; 25 C; HBS-EP (10 mM HEPES pH 7.4, 150 mM NaCl, 3 mM EDTA, 0.005% Tween 20); […].
Test [2] addresses swine nectin-1 ectodomain (amino acids 30-335) (swine) (UniProt Q9GL76). The description is as above.

By Kd is commonly meant the free concentration of one partner at which half of the binding sites on the other are occupied at equilibrium, for simple one-to-one binding. A high value points to a looser complex. By koff is commonly meant the rate constant with which the complex falls apart. The kon is a measure of how fast the partners come together. Read a high kon as faster complex formation.

Sequence of UniProt Q9GL76 (Q9GL76 30-335): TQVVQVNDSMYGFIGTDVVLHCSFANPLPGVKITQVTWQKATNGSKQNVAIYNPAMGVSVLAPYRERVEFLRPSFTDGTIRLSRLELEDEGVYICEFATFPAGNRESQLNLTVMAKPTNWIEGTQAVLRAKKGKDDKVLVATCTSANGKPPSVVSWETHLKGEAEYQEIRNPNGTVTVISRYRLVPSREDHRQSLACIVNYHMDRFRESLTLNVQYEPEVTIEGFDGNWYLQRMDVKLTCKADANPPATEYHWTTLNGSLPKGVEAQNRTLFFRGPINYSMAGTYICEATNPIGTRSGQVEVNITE
Sequence of UniProt Q15223 (Q15223 30-335): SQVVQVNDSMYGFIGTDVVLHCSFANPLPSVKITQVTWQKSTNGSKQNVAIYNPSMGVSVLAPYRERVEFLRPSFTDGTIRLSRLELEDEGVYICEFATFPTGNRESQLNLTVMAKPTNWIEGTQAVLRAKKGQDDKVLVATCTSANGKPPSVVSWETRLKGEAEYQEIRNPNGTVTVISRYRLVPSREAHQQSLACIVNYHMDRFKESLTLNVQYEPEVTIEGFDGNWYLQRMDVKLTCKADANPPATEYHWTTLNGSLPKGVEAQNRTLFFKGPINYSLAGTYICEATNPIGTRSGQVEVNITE

Take “PRV gD284 (pseudorabies virus glycoprotein D, residues 1-284, lacking the membrane-proximal loop) (domain or fragment)”: in test [1], the Kd was 16.1 nM, the koff amounted to 0.0117 s⁻¹ and the kon came to 725000 M⁻¹ s⁻¹. Moreover, in test [2], the Kd came to 18.4 nM, the koff stood at 0.0211 s⁻¹ and the kon worked out at 1.15e+06 M⁻¹ s⁻¹.

For the origin of these results see article PMC5453625.
